From patent US20250327097A1, “ORGANISMS PRODUCING LESS CROTONIC ACID” (Global Bioenergies, priority 2021, published 2025)

System: 3-methylcrotonic acid
Type: biochemical, Yersinia frederiksenii
Parameters: key: “+” representing a low increase in activity; “++++” representing a high increase in activity

Molecule	Activity relative to WT
L223Y-I283T-N285P-N287T-Q290E-S322T-N388M-K394R-K423G-C430A-L432F-L434W-S436N-dG462 (protein) MFLKSLREQINLLKRQGDLRIINRPVDSYLEAAAIIRRSTETKAPVPLMTNIKGYPGCSIVGGLAALSSNPEYPLSRVAMSLGLSTTASAQSIVQYLIDGLKKTPYLPVEIDSNSAPCKQNILRGEDASLAHFPIPQVHQHDGNRYVNTWGVFIVESPDGQWCNWSIQRVQYLNDRQMIALVFPSQHISDIWEEWVKIGKPMPYALVQGCEPIVPYIAGLPLYERNVNEAEYIGALYGKGIEVVKCETHDLRVPASSEVVIEGYFAITREGVEGPFGEFAGYTPPETSLEPILSITAISWQDDPIWPVVAEGKPVDEYHTCTGIGDAAAIQNVLLTANLPVSFVWVPLYSACHLMIVSINRHWRQTHPDLTSEQLTKKVGDVIHQTRMSIKLPRIVVLDDDVDPADTESLLWALATRIHPERGRYFYESAIFPWLNCYSEEERHNRKGKRVIIDALLPENHGAISSFDYAYPDDIKQRVLMHWETDFSHD	++++
I283T-P284D-i284aP-N287P-S322T-N388M-E421V-C430N-L432F-L434W-S436N-dG462-A463T (protein) MFLKSLREQINLLKRQGDLRIINRPVDSYLEAAAIIRRSTETKAPVPLMTNIKGYPGCSIVGGLAALSSNPEYPLSRVAMSLGLSTTASAQSIVQYLIDGLKKTPYLPVEIDSNSAPCKQNILRGEDASLAHFPIPQVHQHDGNRYVNTWGVFIVESPDGQWCNWSIQRVQYLNDRQMIALVFPSQHISDIWEEWVKIGKPMPYALVQGCEPIVPYIAGLPLLERNVNEAEYIGALYGKGIEVVKCETHDLRVPASSEVVIEGYFAITREGVEGPFGEFAGYTDNEPSLQPILSITAISWQDDPIWPVVAEGKPVDEYHTCTGIGDAAAIQNVLLTANLPVSFVWVPLYSACHLMIVSINRHWRQTHPDLTSEQLTKKVGDVIHQTRMSIKLPKIVVLDDDVDPADTESLLWALATRIHPVRKRYFYESNIFPWLNCYSEEERHNRKGKRVIIDALLPENHGTISSFDYAYPDDIKQRVLMHWETDFSHD	++++
N287K-N388M-K394R-C430N-L432F-L434W-S436N (protein) MFLKSLREQINLLKRQGDLRIINRPVDSYLEAAAIIRRSTETKAPVPLMTNIKGYPGCSIVGGLAALSSNPEYPLSRVAMSLGLSTTASAQSIVQYLIDGLKKTPYLPVEIDSNSAPCKQNILRGEDASLAHFPIPQVHQHDGNRYVNTWGVFIVESPDGQWCNWSIQRVQYLNDRQMIALVFPSQHISDIWEEWVKIGKPMPYALVQGCEPIVPYIAGLPLLERNVNEAEYIGALYGKGIEVVKCETHDLRVPASSEVVIEGYFAITREGVEGPFGEFAGYIPNEKSLQPILSITAISWQDDPIWPVVAEGKPVDEYHTCSGIGDAAAIQNVLLTANLPVSFVWVPLYSACHLMIVSINRHWRQTHPDLTSEQLTKKVGDVIHQTRMSIKLPRIVVLDDDVDPADTESLLWALATRIHPERKRYFYESNIFPWLNCYSEEERHNRKGKRVIIDALLPENHGAISSFDYAYPDDIKQRVLMHWETDFSHD	+
I283T-P284D-i284aP-N287P-S322T-N388M-E421V-C430N-L432F-L434W-S436N-H461T-dG462-A463T (protein) MFLKSLREQINLLKRQGDLRIINRPVDSYLEAAAIIRRSTETKAPVPLMTNIKGYPGCSIVGGLAALSSNPEYPLSRVAMSLGLSTTASAQSIVQYLIDGLKKTPYLPVEIDSNSAPCKQNILRGEDASLAHFPIPQVHQHDGNRYVNTWGVFIVESPDGQWCNWSIQRVQYLNDRQMIALVFPSQHISDIWEEWVKIGKPMPYALVQGCEPIVPYIAGLPLLERNVNEAEYIGALYGKGIEVVKCETHDLRVPASSEVVIEGYFAITREGVEGPFGEFAGYTDNEPSLQPILSITAISWQDDPIWPVVAEGKPVDEYHTCTGIGDAAAIQNVLLTANLPVSFVWVPLYSACHLMIVSINRHWRQTHPDLTSEQLTKKVGDVIHQTRMSIKLPKIVVLDDDVDPADTESLLWALATRIHPVRKRYFYESNIFPWLNCYSEEERHNRKGKRVIIDALLPENTGTISSFDYAYPDDIKQRVLMHWETDFSHD	++++
